This note sets out measurements from article PMC9481697.

The target of test [1] is FlaA (TDE1712), flagellar filament sheath protein of Treponema denticola (Treponema denticola ATCC 35405). Briefly: isolation of native flagellar filaments, 2D gel electrophoresis with densitometry and immunoblot. (In general: Immunoblotting shows a protein as a band on a membrane.)
Test [2] shares this target. In words: isolation of native flagellar filaments, 2D gel electrophoresis with densitometry; periplasmic flagella isolated from the ΔflaB1 mutant; 2D gels, Coomassie staining, densitometry; ratios relative to FlaA.
Test [3] has the same target. In words: isolation of native flagellar filaments, 2D gel electrophoresis with densitometry; periplasmic flagella isolated from the ΔflaB3 mutant; 2D gels, Coomassie staining, densitometry; ratios relative to FlaA.
For test [4] the target is unchanged. In words: isolation of native flagellar filaments, 2D gel electrophoresis with densitometry; periplasmic flagella isolated from the ΔflaB2 mutant; 2D gels, Coomassie staining, densitometry; ratios relative to FlaA.

As to “FlaB2 (TDE1004), flagellar filament core flagellin of Treponema denticola (from UniProt Q73NZ6 1-286) (natural protein)”, the stoichiometry relative to FlaA in isolated filaments (ratio relative to FlaA) in test [1] came to 0.61; in test [2], 0.5; in test [3], 0.36.
“FlaB1 (TDE1477), flagellar filament core flagellin of Treponema denticola (from UniProt Q73MN1 1-286) (natural protein)”: the stoichiometry relative to FlaA in isolated filaments (ratio relative to FlaA) in test [1] was found to be 0.71; in test [4], 1.04; in test [3], 1.12.
As for “FlaB3 (TDE1475), flagellar filament core flagellin of Treponema denticola (from UniProt Q73MN3 1-285) (natural protein)”, the stoichiometry relative to FlaA in isolated filaments (ratio relative to FlaA) came to 0.18 in test [1], 0.94 in test [2] and 0.38 in test [4].
